Test results: article PMC9482650, “Quantitative fragmentomics allow affinity mapping of interactomes” (Nature Communications, 2022)

Experiments:
Assay in all cases: holdup assay
Parameters in all cases: key: below the threshold = too weak to quantify, mostly under pKd 3.1 to 4
Conditions in all cases: plain residues with an end cap or a label only (N-terminal biotin on a linker: ado-ado)
PARD3B_1, Q8TEW8 = target: T1, PARD3B_1, Q8TEW8
T1 sequence (Q8TEW8 196-299, limits assumed, looked up): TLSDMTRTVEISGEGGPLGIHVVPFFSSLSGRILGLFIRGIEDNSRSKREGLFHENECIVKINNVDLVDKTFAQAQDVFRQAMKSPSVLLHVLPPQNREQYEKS

LNX1_2, Q8TBB1 = target: LNX1_2, Q8TBB1
LNX1_2, Q8TBB1, sequence (Q8TBB1 371-470): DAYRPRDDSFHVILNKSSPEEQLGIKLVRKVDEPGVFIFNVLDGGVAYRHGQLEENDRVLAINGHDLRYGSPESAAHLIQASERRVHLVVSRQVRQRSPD

FRMPD3, Q5JV73 = target: FRMPD3, Q5JV73
FRMPD3, Q5JV73, sequence (Q5JV73 12-100): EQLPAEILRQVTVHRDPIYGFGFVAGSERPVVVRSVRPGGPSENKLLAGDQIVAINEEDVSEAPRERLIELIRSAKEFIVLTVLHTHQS

ARHGEF11, O15085 = target: T2, ARHGEF11, O15085
T2 sequence (O15085 42-136, limits assumed, looked up): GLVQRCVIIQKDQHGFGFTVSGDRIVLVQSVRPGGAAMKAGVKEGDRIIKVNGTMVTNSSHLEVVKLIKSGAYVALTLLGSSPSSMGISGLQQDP

SNTG2, Q9NY99 = target: T3, SNTG2, Q9NY99
T3 sequence (Q9NY99 68-166, limits assumed, looked up): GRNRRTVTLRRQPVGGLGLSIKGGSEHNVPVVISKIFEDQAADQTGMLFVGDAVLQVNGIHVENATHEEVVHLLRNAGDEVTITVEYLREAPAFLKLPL

DLG5_1, Q8TDM6 = target: DLG5_1, Q8TDM6
DLG5_1, Q8TDM6, sequence (Q8TDM6 617-713): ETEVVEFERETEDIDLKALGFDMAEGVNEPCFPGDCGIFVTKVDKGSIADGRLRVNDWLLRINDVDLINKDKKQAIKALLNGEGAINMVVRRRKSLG

GRIP2_7, Q9C0E4 = target: GRIP2_7, Q9C0E4
GRIP2_7, Q9C0E4, sequence (Q9C0E4 934-1023): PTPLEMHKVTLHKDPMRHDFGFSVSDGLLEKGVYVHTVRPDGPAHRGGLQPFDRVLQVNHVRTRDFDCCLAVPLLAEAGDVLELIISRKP

Inadl_9, Q8NI35 = target: Inadl_9, Q8NI35
Inadl_9, Q8NI35, sequence (Q8NI35 1530-1615): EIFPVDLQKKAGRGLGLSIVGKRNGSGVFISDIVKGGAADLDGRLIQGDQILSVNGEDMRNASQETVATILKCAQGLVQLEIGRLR

MAGI2_6, Q86UL8 = target: MAGI2_6, Q86UL8
MAGI2_6, Q86UL8, sequence (Q86UL8 1141-1229): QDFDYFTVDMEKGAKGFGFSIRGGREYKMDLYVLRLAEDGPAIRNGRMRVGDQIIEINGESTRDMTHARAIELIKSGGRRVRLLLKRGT

FRMPD2_3, Q68DX3 = target: FRMPD2_3, Q68DX3
FRMPD2_3, Q68DX3, sequence (Q68DX3 1073-1166): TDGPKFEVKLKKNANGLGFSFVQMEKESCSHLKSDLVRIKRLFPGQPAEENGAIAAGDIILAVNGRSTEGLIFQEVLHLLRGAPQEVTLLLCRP

LIMK2, P53671 = target: LIMK2, P53671
LIMK2, P53671, sequence (P53671 143-248): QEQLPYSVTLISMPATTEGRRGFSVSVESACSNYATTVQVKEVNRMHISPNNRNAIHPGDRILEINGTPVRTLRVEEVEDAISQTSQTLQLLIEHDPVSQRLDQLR

DLG3_1, Q92796 = target: T4, DLG3_1, Q92796
T4 sequence (Q92796 125-227, limits assumed, looked up): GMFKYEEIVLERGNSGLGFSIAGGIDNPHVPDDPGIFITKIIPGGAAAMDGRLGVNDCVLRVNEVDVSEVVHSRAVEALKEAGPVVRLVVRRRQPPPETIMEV

LIN7C, Q9NUP9 = target: T5, LIN7C, Q9NUP9
T5 sequence (Q9NUP9 88-185, limits assumed, looked up): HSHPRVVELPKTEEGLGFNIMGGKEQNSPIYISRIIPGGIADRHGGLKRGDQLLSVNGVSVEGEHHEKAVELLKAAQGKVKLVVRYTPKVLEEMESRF

APBA2_1, Q99767 = target: T6, APBA2_1, Q99767
T6 sequence (Q99767 563-664, limits assumed, looked up): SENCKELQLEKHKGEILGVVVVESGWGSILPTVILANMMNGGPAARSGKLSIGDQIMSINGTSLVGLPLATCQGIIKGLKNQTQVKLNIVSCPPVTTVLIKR

DLG1_2, Q12959 = target: DLG1_2, Q12959
DLG1_2, Q12959, sequence (Q12959 314-412): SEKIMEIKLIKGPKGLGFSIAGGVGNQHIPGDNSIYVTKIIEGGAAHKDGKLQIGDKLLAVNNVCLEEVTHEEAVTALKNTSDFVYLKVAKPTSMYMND

TX1BP3, O14907 = target: T7, TX1BP3, O14907
T7 sequence (O14907 10-122, limits assumed, looked up): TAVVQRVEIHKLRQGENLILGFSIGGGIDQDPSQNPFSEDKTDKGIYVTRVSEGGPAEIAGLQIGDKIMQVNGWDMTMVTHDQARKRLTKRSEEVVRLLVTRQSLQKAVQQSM

LIN7A, O14910 = target: T8, LIN7A, O14910
T8 sequence (O14910 103-200, limits assumed, looked up): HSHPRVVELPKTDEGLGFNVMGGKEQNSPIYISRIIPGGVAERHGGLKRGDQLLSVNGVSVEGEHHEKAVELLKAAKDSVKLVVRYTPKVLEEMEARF

APBA1_2, Q02410 = target: T9, APBA1_2, Q02410
T9 sequence (Q02410 742-832, limits assumed, looked up): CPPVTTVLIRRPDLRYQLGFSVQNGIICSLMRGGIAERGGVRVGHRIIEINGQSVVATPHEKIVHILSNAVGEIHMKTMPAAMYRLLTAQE

LNX1_1, Q8TBB1 = target: LNX1_1, Q8TBB1
LNX1_1, Q8TBB1, sequence (Q8TBB1 261-371): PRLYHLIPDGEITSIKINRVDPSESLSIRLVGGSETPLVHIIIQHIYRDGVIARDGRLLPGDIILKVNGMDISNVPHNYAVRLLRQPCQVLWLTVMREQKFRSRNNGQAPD

Inadl_10, Q8NI35 = target: Inadl_10, Q8NI35
Inadl_10, Q8NI35, sequence (Q8NI35 1673-1763): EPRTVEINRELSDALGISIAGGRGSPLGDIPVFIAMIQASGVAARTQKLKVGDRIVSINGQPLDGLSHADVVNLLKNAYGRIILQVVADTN

HTRA2, O43464 = target: HTRA2, O43464
HTRA2, O43464, sequence (O43464 355-458): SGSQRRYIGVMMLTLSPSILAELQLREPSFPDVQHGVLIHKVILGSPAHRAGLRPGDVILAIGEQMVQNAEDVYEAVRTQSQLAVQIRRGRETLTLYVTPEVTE

RAPGEF6, Q8TEU7 = target: T10, RAPGEF6, Q8TEU7
T10 sequence (Q8TEU7 525-625, limits assumed, looked up): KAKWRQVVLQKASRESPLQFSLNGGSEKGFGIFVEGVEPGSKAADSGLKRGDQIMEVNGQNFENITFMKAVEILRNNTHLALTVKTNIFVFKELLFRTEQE

MAGI3_2, Q5TCQ9 = target: MAGI3_2, Q5TCQ9
MAGI3_2, Q5TCQ9, sequence (Q5TCQ9 398-503): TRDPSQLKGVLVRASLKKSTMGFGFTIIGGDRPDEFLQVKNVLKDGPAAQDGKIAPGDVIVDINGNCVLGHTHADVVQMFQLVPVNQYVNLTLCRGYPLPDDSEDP

DLG2_3, Q15700 = target: DLG2_3, Q15700
PCLO, Q9Y6V0 = target: T11, PCLO, Q9Y6V0
T11 sequence (Q9Y6V0 4491-4600, limits assumed, looked up): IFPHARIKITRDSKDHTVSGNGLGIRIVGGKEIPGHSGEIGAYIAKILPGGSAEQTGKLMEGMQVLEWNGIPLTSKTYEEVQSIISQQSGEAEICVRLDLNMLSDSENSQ

GRASP, Q7Z6J2 = target: GRASP, Q7Z6J2
GRASP, Q7Z6J2, sequence (Q7Z6J2 96-193): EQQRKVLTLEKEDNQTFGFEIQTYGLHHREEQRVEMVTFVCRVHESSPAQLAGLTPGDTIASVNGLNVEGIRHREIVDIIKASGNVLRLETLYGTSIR

AHNAK1, Q09666 = target: AHNAK1, Q09666
AHNAK1, Q09666, sequence (Q09666 4-100): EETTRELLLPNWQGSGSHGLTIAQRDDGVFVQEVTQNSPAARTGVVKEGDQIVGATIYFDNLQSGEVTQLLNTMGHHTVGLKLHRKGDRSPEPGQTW

Binder	pKd (PARD3B_1, Q8TEW8)	pKd (LNX1_2, Q8TBB1)	pKd (FRMPD3, Q5JV73)	pKd (ARHGEF11, O15085)	pKd (SNTG2, Q9NY99)	pKd (DLG5_1, Q8TDM6)	pKd (GRIP2_7, Q9C0E4)	pKd (Inadl_9, Q8NI35)	pKd (MAGI2_6, Q86UL8)	pKd (FRMPD2_3, Q68DX3)	pKd (LIMK2, P53671)	pKd (DLG3_1, Q92796)	pKd (LIN7C, Q9NUP9)	pKd (APBA2_1, Q99767)	pKd (DLG1_2, Q12959)	pKd (TX1BP3, O14907)	pKd (LIN7A, O14910)	pKd (APBA1_2, Q02410)	pKd (LNX1_1, Q8TBB1)	pKd (Inadl_10, Q8NI35)	further results
SKENVQETQI [LRRC4B, Q9NT99]	below the threshold	below the threshold	below the threshold	below the threshold	4.81	below the threshold	below the threshold	below the threshold	3.92	below the threshold	below the threshold	3.73	3.88	below the threshold	4.64	below the threshold	below the threshold	below the threshold	below the threshold	below the threshold	pKd (HTRA2, O43464): below the threshold; pKd (RAPGEF6, Q8TEU7): 3.52; pKd (MAGI3_2, Q5TCQ9): 4.37; pKd (DLG2_3, Q15700): 4.17; pKd (PCLO, Q9Y6V0): below the threshold; pKd (GRASP, Q7Z6J2): below the threshold; pKd (AHNAK1, Q09666): below the threshold
SSALYGESDL [ACTN2, P35609]	below the threshold	below the threshold	below the threshold	below the threshold	below the threshold	below the threshold	below the threshold	below the threshold	5.05	below the threshold	below the threshold	below the threshold	below the threshold	below the threshold	below the threshold	4.9	below the threshold	below the threshold	3.86	below the threshold	pKd (HTRA2, O43464): below the threshold; pKd (RAPGEF6, Q8TEU7): 3.6; pKd (MAGI3_2, Q5TCQ9): below the threshold; pKd (DLG2_3, Q15700): 3.94; pKd (PCLO, Q9Y6V0): below the threshold; pKd (GRASP, Q7Z6J2): 3.93; pKd (AHNAK1, Q09666): below the threshold
NLSIEKETKL [ASNSD1, Q9NWL6]	3.89	below the threshold	below the threshold	below the threshold	4.95	below the threshold	below the threshold	below the threshold	3.88	below the threshold	below the threshold	below the threshold	4.2	below the threshold	3.93	3.53	below the threshold	below the threshold	below the threshold	below the threshold	pKd (HTRA2, O43464): below the threshold; pKd (RAPGEF6, Q8TEU7): below the threshold; pKd (MAGI3_2, Q5TCQ9): below the threshold; pKd (DLG2_3, Q15700): 3.77; pKd (PCLO, Q9Y6V0): below the threshold; pKd (GRASP, Q7Z6J2): below the threshold; pKd (AHNAK1, Q09666): below the threshold
GQEEQVTTRL [TRPC5, Q9UL62]	4.5	below the threshold	below the threshold	4.37	4.44	below the threshold	below the threshold	below the threshold	3.59	below the threshold	below the threshold	below the threshold	below the threshold	below the threshold	below the threshold	3.69	below the threshold	3.58	below the threshold	below the threshold	pKd (HTRA2, O43464): below the threshold; pKd (RAPGEF6, Q8TEU7): below the threshold; pKd (MAGI3_2, Q5TCQ9): below the threshold; pKd (DLG2_3, Q15700): below the threshold; pKd (PCLO, Q9Y6V0): below the threshold; pKd (GRASP, Q7Z6J2): 4.63; pKd (AHNAK1, Q09666): below the threshold
EVNETDDTKM [KCNJ1, P48048]	below the threshold	below the threshold	below the threshold	3.7	below the threshold	below the threshold	below the threshold	below the threshold	3.56	below the threshold	below the threshold	below the threshold	below the threshold	below the threshold	below the threshold	4.15	3.52	below the threshold	3.92	3.59	pKd (HTRA2, O43464): below the threshold; pKd (RAPGEF6, Q8TEU7): below the threshold; pKd (MAGI3_2, Q5TCQ9): below the threshold; pKd (DLG2_3, Q15700): below the threshold; pKd (PCLO, Q9Y6V0): below the threshold; pKd (GRASP, Q7Z6J2): 3.77; pKd (AHNAK1, Q09666): below the threshold
